Test results from US11287428B2, “PD1 and PDL-1 expression during progression from myelodysplastic syndrome to acute myelogenous leukemia” (H. Lee Moffitt Cancer Center and Research Institute, Inc., priority 2016, dated 2022).

Experiments:
Format in all cases: cell-based, human
CD71 cells = experiment: Active caspase 3 staining of BM cells cultured with S100A9; conditions: BM cells cultured with S100A9, 48 h
Method: (§1) FIG. 21. Increased the expression of PD-1 and PD-L1 induced cell death. One and half million of BM cells from Healthy donor were placed per well in 24-well plate, cultured with IgG or S100A9. After 48 h, cells were collected and stained for cell surface with antibodies: anti-CD33-PE-Cy7, anti-CD34-Percp-Cy5.5, anti-CD14-BV510, anti-CD71-BV421, anti-CD38-BV711, and anti-CD235a-BUV395, then cells were fixed/permeabilized and stained with anti-active caspase 3-PE according to manufacturer's protocol (BD Biosciences). Near infrared live/dead dye was used for distinction of live or dead cells. Flow acquisitions were performed using LSR II cytometer and analysis was done using live cells with flowjo. (A) PD-L1 expression on CD14+/CD33+: cells positive for PD-L1 surface expression were calculated based on FMO gate setting. (B) and (C). PD-1 expression on progenitors by S100A9 or PT plasma, respectively: Positive PD-1 surface expression on CD14−/CD33−/CD71−/CD34+/CD38+ progenitors was determined using FMO gates. HD—healthy donor (n=6), MDS—myelodysplastic syndrome (n=10). Significance was determined using two-tailed unpaired t test with Welch's correction: *P<0.05, **P<0.01, ***P<0.001, error bars indicate mean±SEM.

CD33+CD14+ cells = experiment: Culture of BM cells with S100A9, PD-L1 surface expression by flow cytometry; conditions: BM cells cultured with S100A9, 48 h
Method: FIG. 5. Culture of BM cells with rhS100A9 can induce the expression of PDL1 on CD33+CD14+.
as §1, with “FIGS. 20A-20C. […]” for “FIG. 21. Increased the expression of PD-1 and PD-L1 induced cell death.”, “stained” for “stained for cell surface”, “anti-CD38-BV711, anti-CD235a-BUV395, anti-PD-1-FITC” for “anti-CD38-BV711,”, “anti-PD-L1-APC.” for “anti-CD235a-BUV395, then cells were fixed/permeabilized and stained with anti-active caspase 3-PE according to manufacturer's protocol (BD Biosciences).”, “(C)” for “(C).”, “respectively.” for “respectively:”

[1] = tested on: CD33+, CD34+, and CD71+ cells; experiment: Culture of BM cells with S100A9, PD-1 surface expression by flow cytometry; conditions: for PD-1 expression on CD34+ cells / PD-1 expression on CD71+ cells: BM cells cultured with S100A9, 48 h
Method: FIGS. 6A and 6B. Culture of BM cells with rhS100A9 can induce the expression of PD1 on CD33+.
FIG. 7. Culture of BM cells with rhS100A9 can induce the expression of PD1 on CD34+.
FIG. 8. Culture of BM cells with rhS100A9 can induce the expression of PD1 on CD71+.
as §1, with “FIGS. 20A-20C. […]” for “FIG. 21. Increased the expression of PD-1 and PD-L1 induced cell death.”, “stained” for “stained for cell surface”, “anti-CD38-BV711, anti-CD235a-BUV395, anti-PD-1-FITC” for “anti-CD38-BV711,”, “anti-PD-L1-APC.” for “anti-CD235a-BUV395, then cells were fixed/permeabilized and stained with anti-active caspase 3-PE according to manufacturer's protocol (BD Biosciences).”, “(C)” for “(C).”, “respectively.” for “respectively:”

C-Myc = C-Myc and p-stat3 induction in HD BM cells cultured with S100A9; conditions: HD BM cultured with S100A9 for 48 h
Method: FIG. 23. […] Right panel, HD BM cells 48 h treatment.

[2] = listed as recombinant human S100A9

B1: S100A9: recombinant human S100A9 protein used to treat BM cells (protein, UniProt P06702 1-114, looked up)
Protein S100-A9: MTCKMSQLERNIETIINTFHQYSVKLGHPDTLNQGEFKELVRKDLQNFLKKENKNEKVIEHIMEDLDTNADKQLSFEEFIMLMARLTWASHEKMHEGDEGPGHHHKPGLGEGTP
- active caspase 3 in CD71 cells (CD71 cells): increase active caspase 3
- PD-L1 expression on CD33+CD14+ cells (CD33+CD14+ cells): directly induced the expression of PD-L1
- PD-L1 expression on CD33+CD14+ cells (CD33+CD14+ cells; [2]): induces PDL1 expression
- PD-1 expression on CD34+ cells [1]: directly induced
- PD-1 expression on CD71+ cells [1]: directly induced
- PD-1 expression on CD34+ cells [1, 2]: induces PD1
- PD-1 expression on CD71+ cells [1, 2]: induces PD1
- PD-1 expression on CD33+ cells ([1]; BM cells cultured with rhS100A9): induces PD1
- C-Myc expression (C-Myc): induced C-Myc expression
- p-stat3 (C-Myc): induced p-stat3
